The source of these data is publication PMC5641545, “Structure and Interactions of the TPR Domain of Sgt2 with Yeast Chaperones and Ybr137wp” (Frontiers in Molecular Biosciences, 2017).

One assay has as its system TPR domains. Particulars: ref Scheufler et al., 2000; cited from earlier work. The source says: The orientation of Hsp peptides in TPR structures varies between proteins. The conserved clamp mode of interactions is consistent, but there are some differences observed for the N-terminal parts of the peptides, which is not surprising given that the carboxylate clamp is the fixed point of attachment. The PTVEEVD peptide adopts an extended conformation within the Sgt2_TPR groove similar to that observed in the structure of the HOP TPR1/GPTIEEVD complex (Scheufler et al., [2000]). In contrast, structures of GPTIEEVD/Chip TPR [PDB: 3Q49 (Wang L. et al., [2011]) and PDB: 4KBQ Zhang et al., [2005 ...

For assay [1], the target named is Ybr137wp (Saccharomyces cerevisiae) (UniProt P38276). As to the kind of experiment: ITC. The settings on record: cited from earlier work.
Chain of Ybr137wp (Saccharomyces cerevisiae) (P38276 whole entry, the tested form may be a part): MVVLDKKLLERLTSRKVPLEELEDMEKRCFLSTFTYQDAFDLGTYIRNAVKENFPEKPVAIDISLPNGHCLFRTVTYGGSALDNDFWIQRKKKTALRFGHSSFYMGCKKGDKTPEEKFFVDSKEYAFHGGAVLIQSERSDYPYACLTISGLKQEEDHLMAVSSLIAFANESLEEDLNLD
For assay [2], the target named is T1, Sgt2_TPR (residues 93–229) (Saccharomyces cerevisiae, UniProt Q12118).
T1 construct: were added to Sgt2_TPR (residues 93–229) at 50 μM in the reaction cell; thioredoxin A (N, cleaved yes); hexahistidine tag (N, cleaved yes); made in house; host or cells: E. coli BL21 (DE3)
T1 sequence (Q12118 93-229): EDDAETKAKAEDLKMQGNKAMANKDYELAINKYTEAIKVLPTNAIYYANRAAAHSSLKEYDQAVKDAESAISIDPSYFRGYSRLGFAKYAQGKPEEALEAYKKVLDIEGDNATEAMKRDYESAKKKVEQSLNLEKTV
As to the kind of experiment: ITC binding of peptides to Sgt2_TPR (93–229). The settings on record: 25°C, pH 6.0, from ΔG = −RT·lnKb and ΔG = ΔH − TΔS. Also noted: species or system S. cerevisiae.

The next assay deals with T2, Sgt2_TPR (93–229) (S. cerevisiae, UniProt Q12118 93-229).
T2 construct: Small glutamine-rich tetratricopeptide repeat-containing protein 2 (Sgt2), S. cerevisiae, TPR domain, residues 93-229; 15N-labelled for the NMR titrations; Cloned from synthetic cDNA into the BamHI/XhoI sites of a modified pET28; also called TPR domain of Sgt2; longer construct of Sgt2_TPR; not shown: thioredoxin A, N-terminal, cleaved; His6, N-terminal, cleaved
T2 sequence (looked up): T1 sequence (Q12118 93-229)
Nature of the assay: ITC; 20 injections of 2 uL of 500 uM peptide into 50 uM Sgt2_TPR (93-229) in the cell; 10 mM potassium phosphate pH 6.0, 100 mM NaCl, 250 uM TCEP, 25°C. The settings on record: both partners purified. (In general: ITC needs no label: the signal is the heat of the interaction.)

In the case of EEVD, the “Fold reduction of affinity on trimming the peptide sequence to EEVD only” value in the assay with TPR domains is recorded as “at least 10 times”.

For the molecule Sgt2 TPR (from UniProt Q12118), the Kd – broadly, a measure of binding affinity in units of concentration – in assay [1] was 1380 nM.

As for “MEEVD [peptide corresponding to C-terminal of Hsp82; residues 705–709]”, the “ΔS (reaction entropy) by ITC” value in assay [2] is listed as 10.9 cal/mol·deg.

B1: SLEEDLNLD peptide (C-terminus of Ybr137wp) (peptide)
peptide: SLEEDLNLD
notes: Ybr137wp, yeast, C-terminal residues 171-179; also called Ybr137wp-derived peptide; source: synthetic peptide, bought: Alpha BioScience (Birmingham, UK)
Consider B1, for which, in the assay with Sgt2_TPR (93–229), the Kd was determined as 1530 ± 50 nM and the dH is -7.07 ± 0.99 kcal/mol.

B2: MEEVD peptide (C-terminus of Hsp82) (peptide)
peptide: MEEVD
notes: Hsp82 (yeast Hsp90), C-terminal residues 705-709; the abstract and discussion call the parent Hsc82; also called C-terminal fragment of Hsp82; Hsc82 C-terminal peptide; source: synthetic peptide, bought: Alpha BioScience (Birmingham, UK)
In the assay with Sgt2_TPR (93–229), B2 yielded a Kd of 2950 ± 310 nM and a dH of -4.51 ± 0.03 kcal/mol.

B3: PTVEEVD peptide (C-terminus of Ssa1) (peptide)
peptide: PTVEEVD
notes: Heat shock protein Ssa1 (yeast Hsp70), last seven amino acids; printed as residues 634-640; also called C-terminal peptide of Ssa1; Ssa1 derived PTVEEVD peptide; source: synthetic peptide, bought: Alpha BioScience (Birmingham, UK)
Turning to B3, in the assay with Sgt2_TPR (93–229), the Kd was 9040 ± 50 nM and the dH was -6.72 ± 0.07 kcal/mol.
